The values below come from the DeepSol protein solubility set.

The data set is described as follows: soluble on expression in E. coli; label from the status in PepcDB or PDB records.
On to “SLPGKLALKLDPTILKHLAKNYDVIVITGTNGKTLTTALTVKVLREQYPDILTNPSGSNMKQGIVTTFLRAPKAHQKPLAVLEVDEANVIMVTKYITPKAFVFTNIFRDQMDRYGEIYTTYQKILDGVALAPEATIIANGDLPLFNAKQLPNPILYYGFDYQPDHDQQAPANTDGLLCPRCQHILRYHSRTYSNMGKYYCPHCGFERPQLTYKLNALTAMTPTSSDFEINGQAMHLNIGGQYNIYNALAAYAVGRFMDVTPAKIAHALSDNDEQV”, for which the “soluble on expression in E. coli” value is on record as “not soluble”.

For the sequence “MGSDKIHHHHHHMENKPFIFGVATSGDNFTDREKETERLLLNFQHGVNTVLISPRRWGKTSLVQKACHLAQSDKLKVVYLDIFSCRSDRDFYDAFAAAILKQTSSKLDEWLENTKLFLSRISPKISIGTDPMTDFSISLEMNPQSNDVDEILQLPEKIAQKKGYNIVVCIDEFQQIAEFKDSKTFQKRLRSVWQLQKSVSYCLFGSKKHLMNELFEKKSLPFYKFGDAIYLPKIGTCDWINYICGRFEATGKQISKELAEKICQRVDNHSSYVQQLAWLVWIHTDKVATEQNFEEAYQDIIDQNTPLFEKQTESLTTYQMNFLRAILDGVHSEFTTQEILQKYKLGSSANVSIVKRALVKKELIEIEKRKVIIPDPVMKVWLKKELGGV”, the “soluble on expression in E. coli” value is “not soluble”.

In the case of “MKLANTKGERKLEQKLYYTDAYKQDFTTKVIKQDYDKDGNLYVILNETVFYPTGGGQPHDTGTLNGIAVLGVEEVDEEIRHFIAEQLHTEEVEGKINWERRFDHMQQHAAQHILSAAFWDYFNIPTIGFHLGKETVTIDLETENLHAETVEKAVQIANKIVFENHPILIKWMNLEEAKTLPLRKEPTMTENIRVVMIENFDYNGCGGTHPKRTGEVGPIQVLGWERNKGGIRLTFIAGWRTLKLMGQQQQIMKDVSKQLNSSEADIPAKVAQLLTSQKENKKAMQTMTEKLLYTEANELLQQPTKIHAGILISKVFTNRSMQEIAKLSAIITEQQEHAITYFVIENEDKLQCILACGKTVTLDMNALLKEALPTIEGKGGGNKKSARGGGKAMMSGDEFLNQLISSLQSAV”, the “soluble on expression in E. coli” value is “not soluble”.

Regarding “MSLVSSLSFNFAPDFRPLAARMRPRTIAEYIGQAHLLGEGQPLRQALEAGRAHSMMLWGPPGTGKTTLAELIAHYSNAHVERISAVTSGVKDIRGAIEQAQAIAQSRGQRTLLFVDEVHRFNKSQQDAFLPFIEDGTVIFIGATTENPSFEINNALLSRARVYLIKRLSQDEIVHIITQALADTERGLGQRALNMPTDVLNKLAQLCDGDARKALNLLELMSDMVADGGTFTTEMLVQVAGHQVAGFDKNGDQFYDLISAVHKSIRGSAPDAALYWFCRILEGGGDPLYVARRLLAIASEDVGNADPAAMTIALNAWECFHRVGPAEGERAIAQAIVYLASAPKSNAVYTAFKAARALARETGQEAVPYHLRNAPTKLMAEMGFGAEYRYAHDEPNAYASGENYFPESLKESQFYFPTERGFEKRIKDKLVQLAQLDQASGRKREGHHHHHH”, the “soluble on expression in E. coli” value was “soluble”.

For “MGSDKIHHHHHHMDSYKQYIKEALPNLSIHSYKQNEEGWDNVAIIVNDELLFRFPRKQEYAMRIPLEKELCTLLSCSLHEIEVPKYHLFYEKNTDAIPLCSYYTLIHGEPLKTEIVTTLEKQERKALITQLATFLAALHSIPLKSVTALGFPIEKTLTYWKELQAKLNEYVTNSLTSFQKSTLNRLFENFFACLATSKFQNTIIHADFTHHHILFDKQNKTISGVIDFGDAQIGDPAFDFAGLYYDFGHEFTTSVYEQYSTLTSHHDPLLIHRITSFYQYSPLLHNMIYNFETKNELEFLASIEQLKVILQG”, the “soluble on expression in E. coli” value is reported as “not soluble”.

With “MNRILLYVHFNKYNKISAHVYYQLEQMRSLFSKIVFISNSKVSHEDLKRLKNHCLIDEFLQRKNKGFDFSAWHDGLITMGFDKLEEFDSLTIMNDTCFGPIWEMAPYFENFEEKKAVDFWGITNNRGTKAFKEHVQSYFMTFKNQVIQNKVFQQFWQSIIEYENVQEVIQHYETQLTSILLNEGFSYQTVFDTRKAESSFMPHPDFSYYNPTAILKHHVPFIKVKAIDANQHIAPYLLNLIRETTNYPIDLIVSHMSQISLPDAKYLLSQKYLNCQRLAKQTCQKVAVHLHVFYVDLLDEFLTAFEDWNFHYDLFITTDSDIKRKEIKEILQRKGKTADIRVTGNRGRDIYPMLLLKDKLSQYDYIGHFHTKKSKEADFWAGESWRKELIDMLVKPADSILSAFETDDIGIIIADIPSFFRFNKIVNAWNEHLIAQEMMSLWRKMDVKKQIDFQAMDTFVMSYGTFVWFKYDALKSLFDLELTQNDIPSEPLPQNSILHAIERLLVYIAWGNSYDFRILEHHHHHH”, the “soluble on expression in E. coli” value is “not soluble”.

As for “MTSPNNDILAAQLSQLGTLRAALAQAVVGQDAVVEQLLIGLLAGGHCLLEGAPGLGKTLLVRSLGQALDLQFRRVQFTPDLMPSDILGTELLEEDHGTGHRHFRFQQGPIFTNLLLADELNRTPPKTQAALLEAMSERTVSYAGTTYALPAPFFVLATQNPIEQAGTYPLPEAQLDRFLLHVRVDYPSEQEERDILTQTTGSASAQVPKVMDAASVQALQQHVRQVHVGAELLTWINRLVRASRPGPQASDEVRQWIKWGAGPRAGQSLVLASKARALLHGRFAATREDVVALAAPVMRHRLLLSFAAEAEQRTADDVVAALLRAVPFPALEHHHHHH”, the “soluble on expression in E. coli” value was “soluble”.

Consider “MGSDKIHHHHHHMNFIKTISPIQKINFNGFEFYIKRDDLLGEINGNKARKLAFYIHQRYPKNQSFVSYGGSQSNALAALSIFAKQRSYKLVFACEKISTFLKNNPCGNYALALENGVDFVENIHSLSLKQFALSLCKKDDVFIEQGIANLEAQYGYMELAQEIQMQSQSLKLDFDIFLPSGTGTSAAFLAKYSKFKVFTCACVGDIKYLKKQILTLDPSYDFSNLEFLTSDKKYHFAKPYKEFYELYMDLKLKCNIEFDLLYDILGLSIALKQEWKKPLLYIHQGGILGNSTMLERYKFKKSV”, for which the “soluble on expression in E. coli” value is listed as “not soluble”.

Consider “MTTIEIDAPAGPIDALLGLPPGQGPWPGVVVVHDAVGYVPDNKLISERIARAGYVVLTPNMYARGGRARCITRVFRELLTKRGRALDDILAARDHLLAMPECSGRVGIVGFCMGGQFALVLSPRGFGATAPFYGTPLPRHLSETLNGACPIVASFGTRDPLGIGAANRLRKVTAAKNIPADIKSYPGAGHSFANKLPGQPLVRIAGFGYNEAATEDAWRRVFEFFGQHLRAGSPGEP”, for which the “soluble on expression in E. coli” value is “soluble”.

Regarding “MGSDKIHHHHHHMTENNGFQQHVAKVYREHRGERIVPFEYQGKRYWLKQVEHLAGAMRLLKQNSTAALHKEIGILNTLSHIGAPVPAVVDYGDGYMVVEDVGNTINHLLDHTSQALWQPILNDVSVALAKLHSMQLAHGRPALRDISWQAGEVKFIDFEANQQHKSVVSQQVRDVLVFIHSLYRYIGPNNRMINQAIACYRLAGGEAIWQKAKQFLASWQWLYYFARPFRDFGGKDLKPVYWVLWHFRQAPLTLA”, the “soluble on expression in E. coli” value is recorded as “not soluble”.

As for “MDDWKCYDFEKIKRFEKCENPATSCVKKFVHPTLPNDIPISINLQWSPWSECNDRTQTRTGQCFIRLERQLDDSDGLPENWSWLRKLNTMEKHLAFRDGVPLFNGLLASWLYEVESLESCLDTELGPKSKLSGYDNFFGNVLTSLFSNKTISGIKMSDNAFKYCIRTKTLDETNDALIGTYTEDKRTC”, the “soluble on expression in E. coli” value is “not soluble”.

For the sequence “MAATATEKLPQLKSAVDGLTEMSENEKSGFINLVSRYLSGEAQHIEWSKIQTPTDEIVVPYDKMANVSEDASETKYLLDKLVVLKLNGGLGTTMGCTGPKSVIEVRDGLTFLDLIVIQIENLNNKYNCKVPLVLMNSFNTHDDTQKIVEKYTKSNVDIHTFNQSKYPRVVADEFVPWPSKGKTDKDGWYPPGHGDVFPSLMNSGKLDAFLSQGKEYVFIANSDNLGAIVDLKILKHLIQNKNEYCMEVTPKTLADVKGGTLISYEGKVQLLEIAQVPDEHVNEFKSIEKFKIFNTNNLWVNLKAIKKLVEADALKMEIIPNPKEVDGVKVLQLETAAGAAIRFFDNAIGVNVPRSRFLPVKATSDLLLVQSDLYTLVDGFVTRNKARTNPTNPAIELGPEFKKVASFLSRFKSIPSIVELDSLKVSGDVWFGSGVVLKGKVTVKANAGTKLEIPDNAVLENKDINGPEDL”, the “soluble on expression in E. coli” value is recorded as “soluble”.

As for “MGSDKIHHHHHHMQINNKIIISCSIIASLVSQTTYAQINTGTTSNKLTAFIHAELIIAPGKRLSDATLLVGNNRIKAIIEHGDIPAGAFKIDLSGYTIYPGFIDPFTDYGIEFEYPKLGLTRPVYGIKRIGGNADNGAIHSEKEWFNYVYPNKERAKEWINNGFTSVQSSKLDGIFRGTGVSLSLADKTANEVIYRARSQPFMAFDKGSSEQDYPSSLMGSIALIRPRIQIISATLGQNGEEGVSC”, the “soluble on expression in E. coli” value is “not soluble”.

Take “MEDLLVVGQIINTHGLRGEMKVMPLTEDMRRFDYLEYVILKGKKVKVEGVKYFKDKVILKLEGINSIEEAEKLKRTYLEIEREDAIELEEDEYFIVDLVGCTVVDTEGFEYGKIKDVIQTPSNDVYWVQGKKEVLVPVLKDIVLDINMDEKLITIRPSGEWQYEDLEHHHHHH”: the “soluble on expression in E. coli” value is on record as “not soluble”.

Turning to “AIACHTQVGGSMQVPEPRRPFTCSSENNVTNSFFEEAYSASFRSKLYNMVEEIEQERAKYCNSANLSYMDAFGVEKESIEEDYNKEEDRDSLCSVDIADNSETSNRSSEDLLCDNCSKSLMFLNNVFKWNDLLFCNLDCYTSAILKNQKGADVKHRVACSLSPTWHKDCVHSVQD”, the “soluble on expression in E. coli” value was “soluble”.

Turning to “MSLTDNSKIRVVVGMSGGVDSSVTALLLKEQGYDVIGVFMKNWDDTDEFGVCTATEDYKDVAAVADKIGIPYYSVNFEKEYWDRVFEYFLAEYRAGRTPNPDVMCNKEIKFKAFLDYAMTLGADYVATGHYAQVKRDENGTVHMLRGADNGKDQTYFLSQLSQEQLQKTLFPLGHLQKSEVREIAERAGLATAKKKDSTGICFIGEKNFKQFLSQYLPAQKGRMMTIDGRDMGEHAGLMYYTIGQRGGLGIGGQHGGDNQPWFVVGKDLSQNILYVGQGFYHEALMSNSLDASVIHFTREMPEEFTFECTAKFRYRQPDSHVAVHVRGDKAEVVFAEPQRAITPGQAVVFYDGKECLGGGMIDMAYKNGQPCQYIEGHHHHHH”, the “soluble on expression in E. coli” value is given as “soluble”.

Regarding “MGSDKIHHHHHHMGKFDQITYFIAVVEEHGFAAAARKFGVSTAAVSRQIARLEAELKAELLVRTTRKLSLTDIGARYYQQCKKTLLELNEAEIAIANSRNEAVGILNVTSSRYFAMRFLLPYLPEFMELNPKLQIKIELAERFPDLAQENVDVLFGVSMEGPPELVRKRVSTTRYVLCASPDYLAKNGIPKTPSELGKHRYITHSMRNPDNLVTFKDNEQIYVEPVLWLNDSRALCECALLGMGIIKLHEYIVTEALQDGRLIEVLPEFQESSLSVYLYYQASRYLQPKIRRFIDFFTK”, the “soluble on expression in E. coli” value is “not soluble”.

As for “MGSDKIHHHHHHLKNELAVIDIGSNSIRYVIFHPIDSGRYIEKINVKVVARLSAHIDAEGALDSVGIRLLCETLQRFHEIGITHHVEETICVATAAIRNASNRQDIVHAVEQETPFTMRVLSDEQEAYYGYFAIINSTFLTDGYSVDIGGGSMEVTLIENREMIAYHSFPFGAVTLTRQFLSGETMTSGEQKKLIKFLREQFDEIPWLKNKKLPLIGVGGSARNFVRIHQSTLDYPLHGIHQYQVRSKELGKLIDELEDKAPKQLMKVEGLSKDRVDIFLPALIAIHELALHIEAEQFVMSNYGLREGLVYEYDLHEQEQRRIENVREESLYQLESDYKVNRDRMNYLGTIAKSIYRQLVTLDIIPNRAADLRLLDSASRLLYCGQYINPDTRSNQTFYLLTNTDLKGMTHKDRLALALVSSYSSSKRIQQLLKPFKDWFTDKSIERFDLLGSILKLTEALDVTERRAVDSLEIALEKDKKDLRIILDTGDHDYGFEVEKAEKQKKHLERIIDRSIQFDNKGGGLT”, the “soluble on expression in E. coli” value is given as “not soluble”.
